The text below walks through data of patent US20260069656A1, “Nutritive Polypeptides and Formulations Thereof, and Methods of Production and Use Thereof” (Axcella Health Inc., priority 2013, published 2026).

This data set is described as follows: Intact half-life during simulated gastric fluid (SGF) digestion. As to conditions: SGF pH 1.5, pepsin:polypeptide 1:20 w/w, 37° C.; produced in E. coli unless otherwise noted.

B1: SEQID-00345: nutritive polypeptide (protein)
chain: MNTLDLQNQRILVTGGAGFLGKQVIDQLLKAGAKSENISVPRSHNCDLRNLEACQQAAKGQDIIIHLAAHVGGIGLNQVKPAELFYDNLMMGTQLIHSAYQAGVKKFVCVGTICAYPKFTPVPFQEDDLWNGYPEETNAPYGIAKKALLVQLQAYRQQYGFNGIYLLPVNLYGPEDNFNPKSSHVIPALVRKVYEAQQRGDKQLPVWGDGSPSREFLYSTDAARGIVMATQHYDEPDPVNLGTNSEVTIRDLVELICELMEFQGEIVWETDKPNGQPRRCLDTNRAKERFGFVAEVEFRQGLKNTIDWYRQNPDL
modifications: Arthrospira platensis NIES-39
In the case of B1, the “SGF Half-life (t½)” value was 0.8 min.

B2: SEQID-00343: nutritive polypeptide (protein)
chain: MATLIAPSHHSRVEDAEALRNAFKGWGADDKAIIAILGHRNVHQRQEIRKAYEEIYQEDLIKRLESEISGDFERAMYRWMLQPADRDAVLVNVAIKNGTKDYHVIAEIACVLSAEELLAVRRAYHRRYKCSLEEDVAANTTGNLRQLLVGLVTSYRYEGDEINVKFSQTEANVLHESVKEKKGNSEEVIRILTTRSKTQLVATFNRYRDEHGISISKKLLDQTSDDFHKVLHTAIRCINDHKKYYEKVLRNAVKKFGTDEDGLSRVIVTRAEKDLKDIKELYYKRNSVHLEDEVSKETSGDYKKFLLTLLGK
modifications: Glycine max
Regarding B2, the “SGF Half-life (t½)” value is reported as 0.3 min.

B3: SEQID-00357: nutritive polypeptide (protein)
chain: MKPLNRRTKIVATIGPASNSREVLYQMIQAGMNVVRLNFSHGSHEQHTKTVALLKEISQELKTSITLLQDLQGPKIRVGQLPDGGIQLMAGEYITLVPIDQYESKPNTIAIDYLHLGEEAEIGAQVLLDDGLLELKVEEISGNQVKCKIIEGGTLKSRKGVNLPSLTLRLPSLTEKDQQDLEFGISLGVDWVSLSFVRNAEDVRVLKDFLASKNASQISVMAKIEKPQAIANLEEIISECNGLMVARGDLGVEMSPERVPLLQKQIIRLCNQKGIPVITATQMLDSMINNPRPTRAEASDVANAIIDGTDAVMLSGESAVGKYPIRAVEMLAKIAEDVEPEINFINYPPAFNDETHAISEAINTIDKIIDLHCIIAYTCSGYTGQLAAAERPKAPVVALTPNPKVYHRLNLVWGVKPLLLEQEVESFEELINQAQTYLLVRQMASPGDKILIIGGIPSGKAKGTNFIKIHTIG
modifications: Arthrospira platensis NIES-39
For B3, the “SGF Half-life (t½)” value is given as 0.2 min.

B4: SEQID-00346: nutritive polypeptide (protein)
chain: MYYDADANLDLLAGKTIAIVGYGSQGHAHALNLKDSGMNVIVGLYPGSKSATKAKDAGLTVYPVDEAAKIADLIMILLPDEVQKTVYKNEIEPNLSEGKTLAFAHGFNIHFGQVVPPENVDVIMVAPKGPGHLVRRTYQEGQGVPCLFAVYQDASGQARDRAMAYAKGIGGTRGGILETTFREETETDLFGEQAVLCGGLSALIKAGFETLVEAGYQPELAYFECLHEVKLIVDLVVEGGLAQMRDSISNTAEYGDYTRGPRVITDATRAEMRKILKEIQTGQFAREFVLENQSGKAGFTAMRRQEAEHPIEEVGHDLRAMFSWLKKKA
modifications: Arthrospira platensis NIES-39
As to B4, the “SGF Half-life (t½)” value is given as 0.2 min.

B5: SEQID-00356: nutritive polypeptide (protein)
chain: MATAAEKLSALKSAVAGLNEISENEKNGFISLVGRYLSGEAQHVEWSKIQTPTDEVVVPYDTLAPTPEGSSEVKNLLDKLVVLKLNGGLGTTMGCTGPKSVIEVRDGLTFLDLIVIQIENLNSKYGSNVPLLLMNSFNTHDDTQKIVEKYQNSNIEIHTFNQSQYPRLVVEDFLPLPSKGHTDKDGWYPPGHGDVFPSLLNSGKLDALLSQGKEYVFVANSDNLGAIVDLKILNHLIQNKNEYCMEVTPKTLADVKGGTLISYEGRVQLLEIAQVPDEHVNEFKSIEKFKIFNTNNLWVNLNAVKRLVEADALKMEIIPNPKEVDGIKVLQLETAAGAAIRFFDKAIGINVPRSRFLPVKATSDLLLVQSDLYTLEDGFVIRNKARENPENPSIELGPEFKKVSNFLGRFKSIPSIVELDSLKVAGDVWFGAGVILKGKVSIVSKPGVKLEVPDGVAIVDKEINGPEDL
modifications: Glycine max
B5: the “SGF Half-life (t½)” value is listed as 0.2 min.

B6: SEQID-00298 (AN): nutritive polypeptide naturally produced in Cow (protein, listed as Bos taurus)
chain: MGLSDGEWQLVLNAWGKVEADVAGHGQEVLIRLFTGHPETLEKFDKFKHLKTEAEMKASEDLKKHGNTVLTALGGILKKKGHHEAEVKHLAESHANKHKIPVKYLEFISDAIIHVLHAKHPSDFGADAQAAMSKALELFRNDMAAQYKVLGFHG
As for B6, the “SGF Half-life (t½)” value is 0.3 min.

B7: SEQID-00298 (BS): nutritive polypeptide naturally produced in Cow (protein, listed as Bos taurus)
chain: MGLSDGEWQLVLNAWGKVEADVAGHGQEVLIRLFTGHPETLEKFDKFKHLKTEAEMKASEDLKKHGNTVLTALGGILKKKGHHEAEVKHLAESHANKHKIPVKYLEFISDAIIHVLHAKHPSDFGADAQAAMSKALELFRNDMAAQYKVLGFHG
With B7, the “SGF Half-life (t½)” value is reported as 0.1 min.

B8: SEQID-00284: nutritive polypeptide (protein, listed as Arabidopsis thaliana)
chain: KLEHGVHVVSGTPGRVCDMIKRRSLRTRAIKLLILDESDEMLSRGFKDQIYDVYRYLPPDLQVCLVSATLPHEILEMTSKFMTEPVKILVKRDELTLEGIKQFFVAVEKEEWK
As to B8, the “SGF Half-life (t½)” value is given as 1 min.

B9: SEQID-00338 (BS): nutritive polypeptide (protein, listed as Saccharomyces cerevisiae)
chain: MSSSESIRMVLIGPPGAGKGTQAPNLQERFHAAHLATGDMLRSQIAKGTQLGLEAKKIMDQGGLVSDDIMVNMIKDELTNNPACKNGFILDGFPRTIPQAEKLDQMLKEQGTPLEKAIELKVDDELLVARITGRLIHPASGRSYHKIFNPPKEDMKDDVTGEALVQRSDDNADALKKRLAAYHAQTEPIVDFYKKTGIWAGVDASQPPATVWADILNKLGKD
modifications: strain ATCC 204508 / S288c
With B9, the “SGF Half-life (t½)” value was 0.2 min.

B10: SEQID-00354: nutritive polypeptide (protein)
chain: MSLSNKLTLDKLDVKGKRVVMRVDFNVPMKNNQITNNQRIKAAVPSIKYCLDSGAKSVVLMSHLGRPDGVPMPDKYSLQPVAVELKSLLGKDVLFLKDCVGPEVEKACADPAAGSVILLENLRFHVEEEGKGKDASGNKVKAEPTKIEAFRASLSKLGDVYVNDAFGTAHRAHSSMVGVNLPKKAGGFLMKKELNYFAKALESPERPFLAILGGAKVADKIQLISNMLDKVNEMIIGGGMAFTFLKVLNNMEIGTSLFDEEGSKIVKDLMSKADKNGVKITLPVDFVTADKFDENAKTGQATVASGIPVGWMGLDCGPESSKKYAEAVARAKQIVWNGPVGVFEWEAFARGTKALMDEVVKATSRGCITIIGGGDTATCCAKWNTEDKVSHVSTGGGASLELLEGKVLPGVDALSSV
modifications: Ovis aries
As for B10, the “SGF Half-life (t½)” value is reported as 0.2 min.
